Experimental data: article PMC4552487 (2015)

T1: Parkin (80-465)-Biotin, wild type (UniProt O60260 80-465, biotin (position not given))
T1 chain: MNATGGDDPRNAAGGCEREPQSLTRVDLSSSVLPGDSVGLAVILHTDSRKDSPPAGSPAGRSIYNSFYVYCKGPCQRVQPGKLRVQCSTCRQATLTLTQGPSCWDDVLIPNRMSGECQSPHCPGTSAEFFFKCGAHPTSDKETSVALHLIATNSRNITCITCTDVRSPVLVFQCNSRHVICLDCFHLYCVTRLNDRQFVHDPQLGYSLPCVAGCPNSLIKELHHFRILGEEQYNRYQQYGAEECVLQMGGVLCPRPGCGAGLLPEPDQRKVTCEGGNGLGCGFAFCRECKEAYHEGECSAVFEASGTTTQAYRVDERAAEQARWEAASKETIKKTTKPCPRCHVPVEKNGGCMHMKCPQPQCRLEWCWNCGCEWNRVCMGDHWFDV

B1: Ubl (protein)
chain: MIVFVRFNSSHGFPVEVDSDTSIFQLKEVVAKRQGVPADQLRVIFAGKELRNDWTVQNCDLDQQSIVHIVQRPWRK
B2: Ser65-phosphorylated Parkin Ubl domain (residues 1-76) (Ubl^Phospho-Ser65) (domain or fragment)
chain: B1 chain
modifications: phosphoserine at 65

Target: T1, Parkin (80-465)-Biotin, wild type
Experiment: competition with GST-Ubl (AlphaScreen)

IC50 [nM]	Binder
134	B1
> 2530	B2
